Consider 1 molecule from paper PMC7265302 (Nature Communications, 2020).

This assay addresses MavC (residues 1–385, [change]) (Legionella pneumophila, UniProt Q5ZTL4 1-385). As to the kind of experiment: crystal structure. The following applies: both partners purified.

B1: UBE2N (K94A), the UBE2N moiety of the conjugated UBE2N~Ub (enzyme)
chain: MAGLPRRIIKETQRLLAEPVPGIKAEPDESNARYFHVVIAGPQDSPFEGGTFKLELFLPEEYPMAAPKVRFMTKIYHPNVDKLGRICLDILKDAWSPALQIRTVLLSIQALLSAPNPDDPLANDVAEQWKTNEAQAIETARAWTRLYAMNNI
notes: UBE2N, human E2 enzyme
B1: the binding result is recorded as “binds”.
